According to patent US20100266587A1, “Compositions and Methods to Treat Acute Myelogenous Leukemia” (BIOGEN IDEC MA INC., priority 2009, published 2010):

How the values were obtained:
[1] = test system: fibronectin-dependent cell adhesion; settings: cited from earlier work
[2] = test system: VLA-4 and VLA-5 adhesion to fibronectin; settings: cited from earlier work
MM cell line U226 = experiment: Adhesion mediated drug resistance, MM cells, melphalan; assay type: cell-based
Method: (§1) FIGS. 6A-6D are graphs showing the results of natalizumab on cell adhesion mediated drug resistance. FIG. 6A depicts the percentage of viable HL60 cells remaining after the cells were cocultured for 24 hours with (▪) or without (□) BMSC, then exposed to the chemotherapy drug AraC (cytarabine) for 24 hours. FIG. 6B depicts the percentage of apoptotic cells (Annexin V+, 7AAD) after cocultured HL60 cells were incubated with natalizumab or isotype control antibody for 4 hr., and then exposed to an effective AraC dose as determined from FIG. 6A for 24 hours. FIGS. 6C and 6D show the results of similar experiments conducted with U266 cells exposed to melphalan.

AML cell line HL60 = experiment: Adhesion mediated drug resistance, HL60 cocultured with BMSC, ara-C, apoptosis; assay type: cell-based; settings: natalizumab combined with ara-C 10 μM, 24 hours
Method: as §1
Culturing the AML cell line HL60 in the presence of BMSC conferred a protective advantage to the cells when treated with the chemotherapeutic agent ara-C, as shown in FIG. 6A. Cells were cultured for 24 hours with (▴) or without (□) BMSC, then exposed to the chemotherapy drug AraC (cytarabine) for 24 hours (FIG. 6A). Cell viability was enhanced by the presence of BMSC.

[3] = biological target: T1, VLA-4 on tumor cell lines (Homo sapiens, UniProt P13612); experiment: Binding of natalizumab to AML, CLL and MM tumor cell lines by flow cytometry (all lines)
T1 construct: VLA-4 expression was observed on all cell lines tested; endogenous in cells; host or cells: HL60, KG1 (AML); U266, H929 (MM); Mec1, JM1 (CLL)
Method: FIG. 2 is a graph depicting binding of natalizumab to VLA-4 on tumor cell lines as measured by flow cytometry.
(§2) Flow cytometry experiments were performed to assess the level of VLA-4 expression on tumor cell lines, and VLA-4 expression was observed on all cell lines tested (FIG. 1).).

[4] = test system: tumor cell binding to VLA-4 ligands; experiment: Maximally attainable inhibition of tumor cell binding to VLA-4 ligands at saturating antibody; assay type: cell-based; settings: saturating levels of natalizumab (20 μg/mL) vs isotype control
Method: FIGS. 3A and 3B are graphs showing the effect of natalizumab on HL60 and KG1 AML tumor cell adhesion to VLA-4 ligands fibronectin (• FN), vascular adhesion molecule-1-Ig fusion protein (▪ VCAM-Ig), or bone marrow stromal cells (▴ BMSC), in the presence of natalizumab or an isotype control antibody in serial dilutions starting at 20 μg/ml. FIGS. 3C and 3D show inhibition of binding of HL60 and KG1 AML cells to VLA-4 ligands in the presence saturating levels of natalizumab (20 μg/mL) (solid bars) or isotype control (clear bars).
(§3) FIGS. 4A and 4B are graphs showing the effect of natalizumab on H929 and U266 mM tumor cell adhesion to VLA-4 ligands fibronectin (• FN), vascular adhesion molecule-1-Ig fusion protein (▪ VCAM-Ig), or bone marrow stromal cells (▴ BMSC). Adhesion was assayed in the presence of natalizumab or an isotype control antibody in serial dilutions starting at 20 μg/ml.
as §3, with “5A” for “4A”, “5B” for “4B”, “Mec1” for “H929”, “JM1 CLL” for “U266 mM”
Experiments were conducted to test whether a VLA-4 antagonist can inhibit binding of tumor cells to a VLA-4 ligand. […]

P-STAT3 = experiment: Western blot of coculture-induced survival signaling; assay type: cell-based; settings: cells cocultured with BMSCs, 30 minutes (HL60) or 4 hr (U266)
Method: FIG. 7 is a panel of Western blots assaying for P-STAT3, STAT3, P-JNK, JNK, P-MAPK, and MAPK levels in HL60, KG1 or U266 cells grown in suspension or cocultured with BMSCs and natalizumab, as indicated, for 30 minutes (HL60) or 4 hours (U266).
HL60, KG1 or U266 cells were grown in suspension or coculture with BMSCs and natalizumab, as indicated, for 30 minutes (HL60) or 4 hr (U266), and then the cells were separated from BMSCs, and processed for Western blot analysis to determine levels of P-STAT3, STAT3, P-JNK, JNK, P-MAPK, and MAPK (FIG. 7).

[5] = biological target: T2, VLA-4 (alpha4beta1 integrin) on hematologic tumor cell lines (UniProt P13612 34-1032; P05556 21-798); experiment: flow cytometry, binding to U266 (MM) cells
T2 construct: whole, on cells; also called a4β1 integrin
Method: as §2

[6] = biological target: T2, VLA-4 (alpha4beta1 integrin) on …; experiment: inhibition of Mec1 cell adhesion to wells coated with VCAM-Ig
Method: as §3, with “5A” for “4A”, “5B” for “4B”, “Mec1” for “H929”, “JM1 CLL” for “U266 mM”
(§4) Experiments were conducted to test whether a VLA-4 antagonist can inhibit binding of tumor cells to a VLA-4 ligand. Cell lines were allowed to adhere to wells coated with fibronectin (• FN), vascular adhesion molecule-1-Ig fusion protein (▪ VCAM-Ig), or bone marrow stromal cells (▴ BMSC), in the presence of increasing concentrations of natalizumab or isotype control antibody.

[7] = biological target: T2, VLA-4 (alpha4beta1 integrin) on …; experiment: inhibition of JM1 cell adhesion to wells coated with fibronectin (FN)
Method: as §3, with “5A” for “4A”, “5B” for “4B”, “Mec1” for “H929”, “JM1 CLL” for “U266 mM”
as §4

[8] = biological target: T2, VLA-4 (alpha4beta1 integrin) on …; experiment: inhibition of Mec1 cell adhesion to wells coated with fibronectin (FN)
Method: as §3, with “5A” for “4A”, “5B” for “4B”, “Mec1” for “H929”, “JM1 CLL” for “U266 mM”
as §4

[9] = biological target: T2, VLA-4 (alpha4beta1 integrin) on …; experiment: flow cytometry, binding to H929 (MM) cells
Method: as §2

[10] = biological target: T2, VLA-4 (alpha4beta1 integrin) on …; experiment: inhibition of JM1 cell adhesion to wells coated with VCAM-Ig
Method: as §3, with “5A” for “4A”, “5B” for “4B”, “Mec1” for “H929”, “JM1 CLL” for “U266 mM”
as §4

[11] = biological target: T2, VLA-4 (alpha4beta1 integrin) on …; experiment: inhibition of KG1 cell adhesion to wells coated with fibronectin (FN)
Method: as §4

[12] = biological target: T2, VLA-4 (alpha4beta1 integrin) on …; experiment: inhibition of H929 cell adhesion to wells coated with VCAM-Ig
Method: as §3, §4

[13] = biological target: T2, VLA-4 (alpha4beta1 integrin) on …; experiment: inhibition of H929 cell adhesion to wells coated with fibronectin (FN)
Method: as §3, §4

[14] = biological target: T2, VLA-4 (alpha4beta1 integrin) on …; experiment: inhibition of HL60 cell adhesion to wells coated with fibronectin (FN)
Method: as §4

[15] = biological target: T2, VLA-4 (alpha4beta1 integrin) on …; experiment: flow cytometry, binding to Mec1 (CLL) cells
Method: as §2

[16] = biological target: T2, VLA-4 (alpha4beta1 integrin) on …; experiment: flow cytometry, binding to KG1 (AML) cells
Method: as §2

[17] = biological target: T2, VLA-4 (alpha4beta1 integrin) on …; experiment: inhibition of U266 cell adhesion to wells coated with fibronectin (FN)
Method: as §3, §4

[18] = biological target: T2, VLA-4 (alpha4beta1 integrin) on …; experiment: inhibition of HL60 cell adhesion to wells coated with VCAM-Ig
Method: as §4

[19] = biological target: T2, VLA-4 (alpha4beta1 integrin) on …; experiment: cell-based or functional assay
[20] = biological target: T2, VLA-4 (alpha4beta1 integrin) on …; experiment: inhibition of U266 cell adhesion to wells coated with VCAM-Ig
Method: as §3, §4

[21] = biological target: T2, VLA-4 (alpha4beta1 integrin) on …; experiment: inhibition of KG1 cell adhesion to wells coated with VCAM-Ig
Method: as §4

[22] = biological target: T2, VLA-4 (alpha4beta1 integrin) on …; experiment: flow cytometry, binding to JM1 (CLL) cells
Method: as §2

[23] = biological target: T2, VLA-4 (alpha4beta1 integrin) on …; experiment: flow cytometry, binding to HL60 (AML) cells
Method: as §2

In the case of Glu-Ile-Leu-Asp-Val-Pro-Ser-Thr, the “Inhibitory activity against fibronectin-dependent cell adhesion” value (shortened to “Inhibitory activity”) [1] is listed as “possessed inhibitory activity”.

For Arg-Cys-Asp-TPro-Cys, the “Inhibition of VLA-4 and VLA-5 adhesion to fibronectin” value [2] is given as “can inhibit both VLA-4 and VLA-5 adhesion to fibronectin”.

For “Glu-Ile-Leu-Asp-Val (EILDV; printed: Glu-Ile-Leu-Asp-Val) [pentapeptide from the CS-1 region of fibronectin]”, the “Inhibitory activity” value [1] is listed as “possessed inhibitory activity”.

In the case of “Leu-Asp-Val-Pro-Ser (LDVPS; printed: Leu-Asp-Val-Pro-Ser) [pentapeptide from the CS-1 region of fibronectin]”, the “Inhibitory activity” value [1] is given as “possessed inhibitory activity”.

In the case of Natalizumab, the “Effect on cell adhesion mediated resistance to melphalan” value (MM cell line U226) is reported as “did not have a cytoprotective effect”, the “Percentage of cells undergoing apoptosis” value (AML cell line HL60) is reported as “increase in the percentage of cells undergoing apoptosis” and the “Binding to AML, CLL and MM tumor cell lines” value [3] is reported as “saturable binding was observed”. For the same molecule, the “Inhibition of tumor cell binding to VLA-4 ligands at saturating levels” value [4] was “inhibit binding in all cell types assayed” and the “Coculture-induced survival signaling through P-STAT3” value (P-STAT3) was “can be inhibited”.

B1: natalizumab (antibody, human IgG4, kappa, V domains shown)
VH: QVQLVQSGAEVKKPGASVKVSCKASGFNIKDTYIHWVRQAPGQRLEWMGRIDPANGYTKYDPKFQGRVTITADTSASTAYMELSSLRSEDTAVYYCAREGYYGNYGVYAMDYWGQGTLVTVSS
VL: DIQMTQSPSSLSASVGDRVTITCKTSQDINKYMAWYQQTPGKAPRLLIHYTSALQPGIPSRFSGSGSGRDYTFTISSLQPEDIATYYCLQYDNLWTFGQGTKVEIKR
modifications: Glutamine 1 cyclized to pyroGlutamic Acid; C-terminal Lysine is removed posttranslationally
notes: Humanized version of murine monoclonal antibody 21.6; also called AN100226; TYSABRI
B1 showed an EC50 [5] of 0.3 nM, an IC50 [6] of 0.22 nM and an IC50 [7] of 11.6 nM. The IC50 [8] was 0.39 nM, the EC50 [9] was 0.8 nM and the IC50 [10] was 0.19 nM. It also gave an IC50 [11] of 0.1 nM, an IC50 [12] of 0.45 nM and an IC50 [13] of 0.4 nM. For the same molecule, the IC50 [14] was 0.5 nM, the EC50 [15] was 0.11 nM and the EC50 [16] was 0.22 nM. For the same molecule, the IC50 [17] was 0.4 nM, the IC50 [18] was 0.92 nM and the “IC50 (nM) of inhibition of H929 (MM) cell adhesion to bone marrow stromal cells (BMSC)” value [19] was 1.74 nM. The “IC50 (nM) of inhibition of HL60 (AML) cell adhesion to bone marrow stromal cells (BMSC)” value [19] was 13.7 nM, the “IC50 (nM) of inhibition of U266 (MM) cell adhesion to bone marrow stromal cells (BMSC)” value [19] was 0.53 nM and the IC50 [20] was 0.26 nM. It also gave an IC50 [21] of 0.19 nM, an EC50 [22] of 0.28 nM and an EC50 [23] of 0.19 nM.
